Values belong to the compound of their own block, whether it stands above or below them.
What was measured:
[1] = target: T1, TbCBC-tetramer (TbCBP20-TbCBP110-TbCBP30-TbCBP66) (Trypanosoma brucei, UniProt Q585L4); test: competition pull-down on immobilised γ-aminophenyl-m7GTP resin, SDS-PAGE; format: binding; conditions: pH 7.5, 200 mM NaCl, 5 mM MgCl2, 4 °C; competitive at the cap site
T1 construct: gene Tb06.28P18.1190; full-length subunits co-expressed in Hi5 insect cells (biGBac), HisTrap and heparin purified, tetramer 230 kDa
T1 sequence (Q585L4 1-187): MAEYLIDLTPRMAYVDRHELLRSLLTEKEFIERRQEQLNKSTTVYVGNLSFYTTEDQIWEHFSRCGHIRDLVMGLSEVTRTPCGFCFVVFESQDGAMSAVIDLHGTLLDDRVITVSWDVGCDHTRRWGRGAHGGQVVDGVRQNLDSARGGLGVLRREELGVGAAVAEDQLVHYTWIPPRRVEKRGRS
T1 sequence (Q38BU6 1-1004 partner): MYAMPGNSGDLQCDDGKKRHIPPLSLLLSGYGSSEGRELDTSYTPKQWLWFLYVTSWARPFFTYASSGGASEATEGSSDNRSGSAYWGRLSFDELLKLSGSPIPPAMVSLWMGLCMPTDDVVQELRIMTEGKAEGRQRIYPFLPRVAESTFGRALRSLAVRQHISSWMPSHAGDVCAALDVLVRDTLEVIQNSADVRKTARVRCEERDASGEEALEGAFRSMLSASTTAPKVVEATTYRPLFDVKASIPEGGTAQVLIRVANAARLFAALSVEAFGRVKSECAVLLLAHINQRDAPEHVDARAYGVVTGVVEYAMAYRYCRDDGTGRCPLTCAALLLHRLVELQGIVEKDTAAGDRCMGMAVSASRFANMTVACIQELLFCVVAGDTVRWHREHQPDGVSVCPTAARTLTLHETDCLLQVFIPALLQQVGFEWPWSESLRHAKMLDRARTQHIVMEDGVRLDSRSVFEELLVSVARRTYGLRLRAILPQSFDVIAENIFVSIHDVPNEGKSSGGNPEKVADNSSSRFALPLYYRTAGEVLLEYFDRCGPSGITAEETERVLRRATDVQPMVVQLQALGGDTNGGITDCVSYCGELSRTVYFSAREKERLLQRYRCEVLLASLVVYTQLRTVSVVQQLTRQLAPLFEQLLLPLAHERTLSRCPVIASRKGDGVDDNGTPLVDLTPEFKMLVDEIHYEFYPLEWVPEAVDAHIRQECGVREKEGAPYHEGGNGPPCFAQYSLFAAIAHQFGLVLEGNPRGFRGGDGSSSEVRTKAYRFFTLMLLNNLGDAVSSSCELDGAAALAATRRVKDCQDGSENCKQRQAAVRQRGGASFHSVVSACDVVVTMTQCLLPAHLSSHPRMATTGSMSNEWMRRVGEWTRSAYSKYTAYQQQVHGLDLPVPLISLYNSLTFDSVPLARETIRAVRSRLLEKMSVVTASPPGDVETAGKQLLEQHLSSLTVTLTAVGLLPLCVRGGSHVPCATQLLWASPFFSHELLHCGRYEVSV
T1 sequence (Q387Z0 1-270 partner): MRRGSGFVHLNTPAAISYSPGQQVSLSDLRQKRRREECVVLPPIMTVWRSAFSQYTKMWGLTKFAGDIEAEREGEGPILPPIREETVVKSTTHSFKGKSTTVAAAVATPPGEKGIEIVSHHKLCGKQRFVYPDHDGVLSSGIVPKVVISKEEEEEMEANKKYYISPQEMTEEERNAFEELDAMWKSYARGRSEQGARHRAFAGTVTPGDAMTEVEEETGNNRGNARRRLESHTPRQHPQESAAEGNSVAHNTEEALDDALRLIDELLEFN

[2] = target: T1, TbCBC-tetramer (TbCBP20-TbCBP110-TbCBP30-TbCBP66); test: cryo-EM structure, […] Å; format: binding; conditions: 2-fold excess of ligand; m7GMP part resolved in the TbCBP20 cap pocket
[3] = system: TbCBP66* R348E (Trypanosoma brucei); test: fluorescence polarization; conditions: EMSA: 20 mM HEPES pH 7.5, 50 mM NaCl, 5 mM MgCl2, Tween (0.05% in RNA buffer), RNA stock 50 nM mixed 1:1, 30 min on ice, 6% native PAGE 4 C; FP: same buffer, 0.
[4] = system: TbCBP66* (Trypanosoma brucei); test: EMSA; conditions: EMSA: 20 mM HEPES pH 7.5, 50 mM NaCl, 5 mM MgCl2, Tween (0.05% in RNA buffer), RNA stock 50 nM mixed 1:1, 30 min on ice, 6% native PAGE 4 C; FP: same buffer, 0.
[5] = target: TAMRA-labeled TbCBP30 peptide comprising residues R34-G60 (Trypanosoma brucei); test: MST; 50 nM N-terminally TAMRA-labeled peptide mixed 1:1 with a serial dilution of TbCBC-dimer; 20 mM HEPES, 250 mM NaCl, 5 mM MgCl, 0.1 % Tween in the peptide buffer; 30 min on ice; Monolith NT.115; binding quantified from the ligand-dependent increase in the initial fluorescence; n = 3

Compound: C[n+]1cn([C@@H]2O[C@H](COP(=O)(O)OP(=O)(O)OP(=O)(O)O)[C@@H](O)[C@H]2O)c2nc(N)[nH]c(=O)c21 [m^7GTP]
- competition pull-down on immobilised γ-aminophenyl-m7GTP resin, SDS-PAGE [1]: m^7GTP competed efficiently with cap4-SL RNA binding to TbCBC

Compound: C[n+]1cn([C@@H]2O[C@H](COP(=O)(O)OP(=O)(O)OP(=O)(O)OC[C@H]3O[C@@H](n4cnc5c(N)ncnc54)[C@H](O)[C@@H]3O)[C@@H](O)[C@H]2O)c2nc(N)[nH]c(=O)c21 [m^7GpppA]
- cryo-EM structure, 2.4 Å [2]: The m^7GMP portion of the cap-analog is coordinated by TbCBP20

Compound: AACUAACGCUAUUAUUAGAACAGUUUCUGUACUAUAUUG [OH-SLe 3'-6FAM (39 nt SL RNA exon, FP)]
- Kd [3]: 9810 nM

Compound: AUUAGAACAGUUUCUGUACUAUAUUG [SL-hairpin_loop (A14-G39)]
- Kd [4]: 390 nM

- Kd [5]: 980 nM
Compound: TbCBC-dimer (TbCBP20-TbCBP110 dimer) (complex)

— paper PMC11735809, “Structural basis of Spliced Leader RNA recognition by the Trypanosoma brucei cap-binding complex” (Nature Communications, 2025)
